Measurements taken from the supplement of paper PMC10567573.

B1: MGC16075 (parent)
chain: AGSRQALSFEVPPCNYDPEKWIQ
B2: FAM50A (parent)
chain: KKREKQREQMEQMKQRIAEENIMK

Variants of: B1
Test: protein stability index of a GFP-peptide fusion (GPS, HEK-293T) (PSI 1-6); higher = more stable
Conditions: c terminus: native
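Also: lentivirally expressed fusions sorted by FACS into six bins by GFP to DsRed ratio, PSI derived from sequencing read proportions per bin multiplied by bin number.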

Protein stability index, by site and new letter:
G2: V 1.97, A 1.77, E 1.48, Q 2.2, N 2.37, T 1.95, Y 2.51, D 1.93, F 2.77, P 1.94, M 2.88, K 2, H 2.4, L 2.27, W 1.68, I 2.37, S 1.75, R 2.58
S3: V 1.27, F 4.6, Q 1.6, T 1.79, L 1.93, R 1.57, I 1.99, A 1.67, P 2.18, D 1.86, K 2.32, M 1.92, E 1.28, G 2.88, N 1.59, H 2.44, W 2.7, C 1.52, Y 1.28
A6: N 2.16, D 2.91, P 1.56, K 2.47, Q 1.99, M 2.98, I 3.05, H 1.71, F 2.46, L 3.71, G 1.03, W 3.24, R 2.29, E 1.92, T 1.53, V 2.59, S 1.6, C 2.03
Q5: H 1.82, R 1.84, N 1.82, W 4.32, A 1.8, D 1.52, P 1.47, V 2.35, M 1.72, F 3.99, Y 2.68, K 1.3, S 1.48, T 2.12, G 2.03, E 3.29
R4: L 2.53, F 2.41, K 1.72, Y 1.22, V 2.61, T 2.14, N 1.98, Q 1.87, I 2.7, E 1.83, A 2.66, P 2.77, G 1.39, D 2.41, C 1.57, S 2.21, W 3.74, H 2.67, M 3.08
A1: T 2.09, L 1.22, Y 2.8, N 2.23, G 1.68, I 1.9, M 1.25, E 2.19, W 3.29, F 3.97, K 2.18, R 2.04, D 2.9, H 1.82, Q 2.17, C 1.19, S 1.46, P 2.5
L7: Q 2.57, M 1.86, H 2.33, T 2.42, I 2.07, R 2.5, Y 1.76, F 3.58, K 1.82, P 1.26, A 2.09, N 2.72, S 2.11, G 2.06, C 2.75, W 2.77, V 1.78, D 2.45, E 3.23
S8: G 1.83, D 2.32, I 1.59, R 1.89, L 1.98, H 2.05, P 1.91, C 2.6, T 3.31, W 2.05, Q 1.26, A 1.79, N 1.91, V 1.54, E 3.24, K 2.09, F 2.92

Variants of: B2
Test: as above
Conditions: c terminus: a fixed tail appended

Protein stability index of substitutions, site by site:
N21: H 4.46, F 4.31, W 3.91, R 4.35, D 5.11, V 4.03, C 4.63, Y 4.41, I 4.17, G 4.75, L 3.99, K 5.35, A 4.73, Q 5.48, M 4.64, S 4.75, P 4.85, T 4.77, E 5.12
K24: M 5.03, T 4.95, W 3.77, P 4.46, C 5.14, I 4.35, S 4.88, Y 4.24, E 4.85, G 4.99, N 4.77, D 5.12, A 4.33, L 4.13, V 4.82, R 4.16, H 4.97, F 4.39, Q 4.86
I22: T 5.46, W 4.63, L 4.91, A 4.48, K 4.16, R 4.92, H 4.8, E 5.68, M 5.07, F 3.93, C 5.22, S 5.33, P 5.12, D 5.54, Y 4.18, Q 4.75, N 5.12, V 4.85, G 5.2
M23: P 5.46, N 4.66, V 5.27, Q 5.45, L 4.49, C 4.83, A 4.63, K 4.99, Y 4.75, T 4.93, R 3.3, G 5, D 5.14, W 4.02, S 5.28, H 4.89, F 4.32, E 5.25, I 4.04
I17: K 4.25, Q 5.44, M 4.87, A 5.39, D 5.3, S 5.3, G 5.41, C 4.37, Y 4.46, V 4.87, R 4.77, T 5.3, H 5.02, N 5.2, W 4.25, F 5.12, E 5.1, L 4.92, P 5.52
E19: I 2.92, R 4.98, C 3.9, M 4.09, P 4.19, K 5.08, Q 4.72, F 3.71, A 4.63, N 4.34, G 4.78, Y 4.38, W 3.66, V 3.47, T 4.78, H 4.6, D 4.33, S 4.33, L 3.22
E20: V 3.74, R 4.48, M 3.79, Q 4.17, F 3.79, D 4.85, S 3.37, P 4.8, W 3.47, I 4, K 3.96, G 4.34, L 3.84, N 4.44, C 4.53, T 4.85, A 4.47, Y 3.62, H 4.39
A18: W 4.09, Q 5.31, V 4.69, P 4.79, T 4.59, L 4.72, S 4.78, N 4.93, E 4.62, D 5.35, F 4.84, R 4.39, M 4.12, C 4.35, H 4.19, Y 4.43, I 4.36, G 4.64, K 3.97
Q15: C 4.19, T 4.85, L 4.7, N 4.8, I 4.51, R 4.73, W 4.29, G 4.68, V 4.36, F 4.44, E 5.51, M 4.5, K 4.4, P 4.9, D 5.02, H 4.84, S 4.9, Y 4.14, A 4.67
R16: T 5.01, I 4.71, H 5.09, L 4.51, G 5.32, Y 5.15, V 5.02, S 5.52, P 5.19, E 5.53, M 4.89, W 3.94, C 4.81, D 5.56, Q 4.97, N 4.67, K 4.83, F 4.52, A 5.42
